Experimental findings from patent JP2020117470A (dated 2020) are described below.

In this experiment the target is T1, Streptococcus pyogenesのStreptolysin O(SLO) (Streptococcus pyogenes, UniProt P0C0I3 34-571).
T1 sequence: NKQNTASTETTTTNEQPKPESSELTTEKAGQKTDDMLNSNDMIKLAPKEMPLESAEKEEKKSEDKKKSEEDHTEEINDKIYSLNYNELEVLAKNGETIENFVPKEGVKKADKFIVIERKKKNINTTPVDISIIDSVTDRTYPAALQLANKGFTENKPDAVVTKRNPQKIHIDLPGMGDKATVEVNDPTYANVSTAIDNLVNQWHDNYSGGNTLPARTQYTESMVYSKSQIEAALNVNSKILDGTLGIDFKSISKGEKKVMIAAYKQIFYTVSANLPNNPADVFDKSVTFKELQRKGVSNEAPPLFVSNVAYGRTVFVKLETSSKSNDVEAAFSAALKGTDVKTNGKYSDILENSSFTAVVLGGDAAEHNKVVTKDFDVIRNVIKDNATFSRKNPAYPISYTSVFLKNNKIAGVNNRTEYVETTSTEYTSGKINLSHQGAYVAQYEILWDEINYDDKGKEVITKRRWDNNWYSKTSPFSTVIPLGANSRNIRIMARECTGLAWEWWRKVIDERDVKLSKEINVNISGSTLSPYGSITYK
Description: ELISA, plate coated with 1 μg/mL SLO, anti-mouse IgG-HRP detection.

B1: 抗体HS3 (antibody, V domains shown)
VH: EVQLQESGPDLVKPSQSLSLICTVTGYSITSGYNWHWIRQFPGNKLEWMAYIDYTGSTHYNPSLKSRISITRDTSKNHFFLQLNSVTTEDTATYYCARDYGNYEWSFDVWGAGTTVTVSS
VL: DIQMNQSPSSLSASLGDTITITCHASQNINVWLSWYQQKPGNIPKLLIYKASNLHTGVPSRFSGSGSGTGFTLTISSLQPEDIATYYCQQGQSYPLTFGAGTKL
As for B1, the binding result is recorded as “no binding”.

B2: 抗体HS2 (antibody, V domains shown)
V domain 1: VQLQESGPELVKPGASVKISCKASGYAFSSSWMNWVRQRPGQGLEWIGRIYPGDGDTNYNGKFKGKATLTADKSSNAAYMHLSSLTSVDSAVYFCARRNYGSGFLYYFDYWGQGTTLTV
V domain 2: QIVLSQFPAILSASPGEKVTMTCRASSSVSYMHWYQQKPGSSPKLWIYATSDLASGVPARFSGSGSGTSYSLTISRVEAEDAATYYCQQWSSNPPTFGGGTKL
On to B2, for which the binding result is “no binding”.
